The source of these data is article PMC9929448.

The target in assay [1] is BMP-2 N102D mutant, mature form (human).
In assay [2] the target is T1, Bone morphogenetic protein 2 (BMP-2), wild type, mature form (human).
T1 sequence (P12643 whole entry, looked up): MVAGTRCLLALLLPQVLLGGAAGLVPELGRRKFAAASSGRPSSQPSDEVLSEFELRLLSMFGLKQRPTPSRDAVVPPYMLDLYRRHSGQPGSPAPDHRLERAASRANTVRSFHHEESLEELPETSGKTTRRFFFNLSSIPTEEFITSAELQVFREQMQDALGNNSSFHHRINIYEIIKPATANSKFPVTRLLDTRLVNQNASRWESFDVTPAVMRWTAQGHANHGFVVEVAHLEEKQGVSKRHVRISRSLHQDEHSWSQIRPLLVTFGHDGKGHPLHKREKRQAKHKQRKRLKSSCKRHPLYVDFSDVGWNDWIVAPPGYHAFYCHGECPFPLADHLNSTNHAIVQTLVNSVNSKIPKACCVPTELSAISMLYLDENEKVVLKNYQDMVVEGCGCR

B1: Noggin (residues 28-232) (natural protein)
chain: MQHYLHIRPAPSDNLPLVDLIEHPDPIFDPKEKDLNETLLRSLLGGHYDPGFMATSPPEDRPGGGGGAAGGAEDLAELDQLLRQRPSGAMPSEIKGLEFSEGLAQGKKQRLSKKLRRKLQMWLWSQTFCPVLYAWNDLGSRFWPRYVKVGSCFSKRSCSVPEGMVCKPSKSVHLTVLRWRCQRRGGQRCGWIPIQYPIISECKCSC
modifications: biotin (biotinylated Noggin in the BLI experiments); methionine oxidation, mainly on the N-terminal methionine, in part of the sample
Turning to B1, the IC50 of Noggin (0.16 to 160 nM) on ALP activity and Alizarin Red staining (calcium deposition) of ATDC5 cells stimulated with 10 nM N102D BMP-2, day 7 in assay [1] was 8 nM. Also, the IC50 of Noggin (0.16 to 160 nM) on ALP activity and Alizarin Red staining (calcium deposition) of ATDC5 cells stimulated with 10 nM WT BMP-2, day 7 in assay [2] is 8 nM.
